Measured values published in paper PMC9333347.

Target: thermostable exoshell tES(+)F116H
Assay: AUC

horseradish peroxidase (from UniProt P00433 31-338) (enzyme)
stoichiometry N (HRP molecules per tES shell): 2
